{
  "source": "paper PMC10959958",
  "target": "4-HNE-modified recombinant C99 with mutation Lys53Arg (human)",
  "assay": "SDS-PAGE with Western blot; recombinant C99 or C99^Lys53Arg reacted with 50-fold (R)-4-HNE (25 mM HEPES, 150 mM NaCl, pH 7.4, 37 °C, 1 h); C99 detected by C1/6.1 antibody, adducts by 4-HNE antibody; oligomer bands on the gel",
  "data": [
    {"substance": "4-HNE-modified recombinant C99 with mutation Lys53Arg (domain or fragment)", "values": [
      {"measurement": "stoichiometry N", "result": 2}
    ]}
  ]
}
